Experimental data taken from US20210317213A1 (AMBRX, published 2021).

B1: Fab1-HK129-LK172-BiFolate (Fab, V domains shown)
VH: EVQLVESGGGLVQPGGSLRLSCAASGFTFNTYAMNWVRQAPGKGLEWVARIRSKYNNYATYYADSVKDRFTISRDDSKNILYLQMNSLKTEDTAVYYCVRHGNFGNSYVSWFAYWGQGTLVTVSS
VL: QAVVTQEPSLTVSPGGTVTLTCRSSTGAVTTSNYANWVQQKPGQAPRGLIGGTNKRAPGTPARFSGSLLGGKAALTLSGAQPEDEAEYYCALWYSNLWVFGGGTKLTVLG
modifications: pAF at LK172 (Kabat) conjugated to folate (oxime); pAF at HK129 (Kabat) conjugated to folate (oxime)
notes: From E. coli; carries two folates
B2: Fab1-HK129-5KPEG-Folate (Fab, V domains shown)
VH: EVQLVESGGGLVQPGGSLRLSCAASGFTFNTYAMNWVRQAPGKGLEWVARIRSKYNNYATYYADSVKDRFTISRDDSKNILYLQMNSLKTEDTAVYYCVRHGNFGNSYVSWFAYWGQGTLVTVSS
VL: QAVVTQEPSLTVSPGGTVTLTCRSSTGAVTTSNYANWVQQKPGQAPRGLIGGTNKRAPGTPARFSGSLLGGKAALTLSGAQPEDEAEYYCALWYSNLWVFGGGTKLTVLG
modifications: pAF at HK129 (Kabat) conjugated to a bifunctional linker carrying folate and a linear 5K PEG (oxime)
notes: From E. coli; also called Fab1-5KPEG-Folate
B3: Fab1-HK129-20KPEG-Folate (Fab, V domains shown)
VH: EVQLVESGGGLVQPGGSLRLSCAASGFTFNTYAMNWVRQAPGKGLEWVARIRSKYNNYATYYADSVKDRFTISRDDSKNILYLQMNSLKTEDTAVYYCVRHGNFGNSYVSWFAYWGQGTLVTVSS
VL: QAVVTQEPSLTVSPGGTVTLTCRSSTGAVTTSNYANWVQQKPGQAPRGLIGGTNKRAPGTPARFSGSLLGGKAALTLSGAQPEDEAEYYCALWYSNLWVFGGGTKLTVLG
modifications: pAF at HK129 (Kabat) conjugated to a bifunctional linker carrying folate and a linear 20K PEG (oxime)
notes: From E. coli
B4: Fab8-HK129-Folate (Fab, V domains shown)
VH: EVQLVESGGGLVQPGGSLRLSCAASGFTFNTYAMNWVRQAPGKGLEWVGRIRSKYNNYATYYADSVKDRFTISRDDSKNILYLQMNSLKTEDTAVYYCVRHGNFGNSYVSWFAYWGQGTLVTVSS
VL: QAVVTQEPSLTVSPGGTVTLTCRSSTGAVTTSNYANWFQQKPGQAPRGLIGGTNKRAPGVPARFSGSLLGGKAALTLSGAQPEDEAEYYCALWYSNLWVFGGGTKLTVLG
modifications: pAF at HK129 (Kabat) conjugated to folate (oxime)
notes: also called Fab8 (E. coli, folate-conjugated)
B5: Fab9-HK129-Folate (Fab, V domains shown)
VH: EVQLVESGGGLVQPGGSLRLSCAASGFTFNTYAMNWVRQAPGKGLEWVGRIRSKYNNYATYYADSVKDRFTISRDDSKNSLYLQMNSLKTEDTAVYYCVRHGNFGNSYVSWFAYWGQGTLVTVSS
VL: QAVVTQEPSLTVSPGGTVTLTCRSSTGAVTTSNYANWFQQKPGQAPRGLIGGTNKRAPGVPARFSGSLLGGKAALTLSGAQPEDEAEYYCALWYSNLWVFGGGTKLTVLG
modifications: pAF at HK129 (Kabat) conjugated to folate (oxime)
notes: also called Fab9 (E. coli, folate-conjugated)
B6: Fab1-HS115-Folate (Fab, V domains shown)
VH: EVQLVESGGGLVQPGGSLRLSCAASGFTFNTYAMNWVRQAPGKGLEWVARIRSKYNNYATYYADSVKDRFTISRDDSKNILYLQMNSLKTEDTAVYYCVRHGNFGNSYVSWFAYWGQGTLVTVSS
VL: QAVVTQEPSLTVSPGGTVTLTCRSSTGAVTTSNYANWVQQKPGQAPRGLIGGTNKRAPGTPARFSGSLLGGKAALTLSGAQPEDEAEYYCALWYSNLWVFGGGTKLTVLG
modifications: pAF at HS115 (Kabat) conjugated to folate (oxime)
notes: From E. coli; Fab-folate conjugate

Assays:
[1] = target: Folate receptor-alpha (FOLR1) (human) (UniProt P15328); experiment: summary table; FRα affinity over CD3 affinity
[2] = target: T1, human CD3 (human, UniProt P07766 23-207); experiment: cell binding, human PBMC
T1 construct: whole, on cells; also called CD3 on human T-cells

[3] = target: Folate receptor-alpha (FOLR1) (human) (UniProt P15328); experiment: cell binding, SKOV-3 cells with 50 nM SFA; through the folate moiety
[4] = target: T1, human CD3; experiment: summary table; cell binding EC50, human PBMC
[5] = target: Folate receptor-alpha (FOLR1) (human) (UniProt P15328); experiment: summary table; cell binding through the folate moiety
[6] = target: T1, human CD3; experiment: cell binding, human T-cells; set-up: Bmax: unit not given here
[7] = target: T1, human CD3; experiment: cell binding, human CD3, 50 nM SFA present
[8] = target: T1, human CD3; experiment: cell binding, activated human PBMC
[9] = target: T2, cyno CD3 (cyno (cynomolgus monkey), UniProt Q95LI5 22-198); experiment: cell binding, cynomolgus T-cells
T2 construct: whole, on cells; also called CD3 on Cynomolgus T-cells

[10] = target: Folate receptor-alpha (FOLR1) (human) (UniProt P15328); experiment: cell binding, FOLRα-expressing KB cells; through the folate moiety
[11] = target: T2, cyno CD3; experiment: cell binding, activated cyno PBMC
[12] = target: T2, cyno CD3; experiment: cell binding, cyno CD3 (activated cyno PBMC); cyno CD3 (second number of the cell)
Procedure: (§1) Testing for CD3 binding with activated human and cyno PBMC: To distinguish between the humanized anti-CD3 antibodies generated, binding to human CD3 was tested using activated human PBMCs (n=2). The activation of PBMCs and subsequent fluorescence-based CD3 binding assays were followed as described previously (see for example, Angew Chem Int Ed Engl, 52(46):12101-12104, 2013). […] The binding of the remaining 6 humanized antibodies to both human and cyno CD3 using activated human and cyno PBMCs, respectively, was titrated. […] The six (6) humanized anti-CD3 antibodies were obtained as follows: Fab1, Fab2 and Fab3 wildtype were generated by combination of LC ((vL1.2+CL); (SEQ.ID. NO:7)) and HC ((vH1.2+CH1); (SEQ.ID. NO:1)), ((vH1.1+CH1); (SEQ.ID. NO:2)) and ((vH1.0+CH1); (SEQ.ID. NO:3)) respectively. Fab4, Fab 5 and Fab6 wildtype were generated by combination of LC ((vL1.1+CL); (SEQ.ID. NO:8)) and HC ((vH1.2+CH1); (SEQ.ID. NO:1)), ((vH1.1+CH1); (SEQ.ID. NO:2)) and ((vH1.0+CH1); (SEQ.ID. NO:3)) respectively.
(§2) Binding of Folate-conjugated Fabs to human and cyno CD3: Binding of E. coli produced and Folate-conjugated low-affinity variants of humanized anti-CD3 Fabs was performed as described in the above Examples.

[13] = target: T1, human CD3; experiment: cell binding, human CD3 (activated human PBMC); human CD3 (first number of the cell)
Procedure: as §1, §2

[14] = target: T1, human CD3; experiment: cell binding, activated human PBMC; E. coli protein
[15] = target: T2, cyno CD3; experiment: cell binding, activated cyno PBMC; E. coli protein

T1 sequence (P07766 23-207): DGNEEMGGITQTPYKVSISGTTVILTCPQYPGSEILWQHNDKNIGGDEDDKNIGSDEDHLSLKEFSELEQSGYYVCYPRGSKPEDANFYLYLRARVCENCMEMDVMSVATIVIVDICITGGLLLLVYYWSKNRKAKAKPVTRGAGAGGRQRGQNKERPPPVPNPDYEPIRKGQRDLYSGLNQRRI
T2 sequence (Q95LI5 22-198): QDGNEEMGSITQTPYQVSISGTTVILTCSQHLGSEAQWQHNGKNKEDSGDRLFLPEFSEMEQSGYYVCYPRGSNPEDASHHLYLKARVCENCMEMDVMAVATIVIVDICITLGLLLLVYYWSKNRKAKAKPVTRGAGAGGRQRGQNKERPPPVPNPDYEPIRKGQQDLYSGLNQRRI
Folate receptor-alpha (FOLR1) (human), sequence (P15328 25-234): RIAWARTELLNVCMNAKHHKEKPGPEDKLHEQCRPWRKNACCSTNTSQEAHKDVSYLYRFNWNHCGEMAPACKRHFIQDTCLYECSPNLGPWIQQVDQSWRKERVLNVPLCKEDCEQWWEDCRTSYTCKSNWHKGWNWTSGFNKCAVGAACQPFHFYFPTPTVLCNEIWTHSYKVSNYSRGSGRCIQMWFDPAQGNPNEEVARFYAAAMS

Row | Binder | Affinity ratio (FRα:CD3) [1] | CD3 binding affinity [4] [nM] | FRα binding affinity [5] [nM] | EC50 [8] [nM] | Fold reduction in binding (vs Fab1-HK129-Folate) [8] [fold] | EC50 [11] [nM] | Fold reduction in binding (vs Fab1-HK129-Folate) [11] [fold] | EC50 [12] [nM] | EC50 [13] [nM] | other results
1 | B1 | 3.5 | 2.85 | 10 |  |  |  |  |  |  | EC50 [2]: 2.85 nM; Fold increase binding (vs Fab1-HK129-Folate) [2]: 0.86 fold; EC50 [3]: 10 nM; Fold increase binding (vs Fab1-HK129-Folate) [3]: 4.4 fold
2 | B2 | 26 | 5 | 129 | 5 | 1.9 | 2.46 | 1.7 |  |  | Bmax [6]: 23400; Kd [6]: 2.34 nM; EC50 [7]: 5.27 nM; Bmax [9]: 19900; Kd [9]: 3.31 nM; Bmax [10]: 134000; Kd [10]: 3.69 nM
3 | B3 | 26 | 12 | 310 | 12 | 4.3 | 11.8 | 8.4 |  |  | 
4 | B4 |  |  |  |  |  |  |  | 130 | 78.3 | 
5 | B5 |  |  |  |  |  |  |  | 93.1 | 69.1 | 
6 | B6 |  |  |  |  |  |  |  |  |  | EC50 [14]: 1.41 nM; EC50 [15]: 1.37 nM
